Experimental data taken from US20170334973A1 (INTEGRATED BIOTHERAPEUTICS, published 2017).

B1: FVM34 (antibody, V domains shown)
VH: EVQLVESGAEVKRPGESLTISCKTSGYSFTDSWVSWVRQMPGKGLEWMGSIYPGDSETKYNPSFQGHVTISADKSVTTTYLKWSSLKASDTATYYCVKGSETWGQGVLVTVSS
VL: QPVLTQPASLSASPGASASLTCTFSGGINVAGYYIHWYQQKPGSPPRYLLRYKSDSDKHQGSGVPSRFSGSKDASANTGILRISGLQSEDEADYYCAIGHSSGWVFGGGTRLTVL
B2: FVM32 (antibody, V domains shown)
VH: QVQLVQSGAEVKRPGESLRISCKTSGYSFTDSWVAWVRQMPGKGLEWLGSIYPGDSDTRYSPSFQGQVTISADKSITTAYLKWSSLKASDTATYYCVKGSETWGQGVLVTVSS
VL: QPVLTQPASLSASPGASASLTCTFNGGITVPGYDILWYQQKSGSPPRYLLRYKSDSTKDQGSGVPSRFSGSKDASTNTGILRISGLQSEDEADYYCAIGHSSGWIFGGGTRLTVL
B3: FVM18 (antibody, V domains shown)
VH: QVQLVQSGAEVKRPGESLKISCKTSGYSFTNIWISWVRQMPGKGLEWLGSIYPGDSETKYNPSFQGHVTISADKSVTTTYLKWSSLKASDTATYYCVKGSETWGQGVLVTVSS
VL: NFMLTQPASLSASPGASASLTCTFSGGINVAGYHILWYQQKPGSPPRYLLRYKSDSEKDQGSGVPSRFSGSKDASANRGILRISGLQSEDEADYYCAIGHSSSGWVFGGGTRLTVL
B4: FVM19 (antibody, V domains shown)
VH: QVQLVQSGAEVKRPGESLTISCKTSGYSFTDSWVAWVRQMPGKGLEWLGSIYPGDSDTKYNPSFQGHVTISADKSVTTTYLKWSSLKASDTATYYCVKGSETWGQGVLVTVSS
VL: KPMLTQPASLSASPGASASLTCTFSGGINVAGYHIFWYQQKPGSPPRYLLRYKSDSDKGQGSGVPSRFSGSKDASANTGILRISGLQSEDEADYYCAIGHSSGLLFGGGTRLTVL
B5: FVM12 (antibody, V domains shown)
VH: EVQLVQSGAEVKRPGESLTISCKTSEYSFTGSWISWVRQMPGKGLEWMGSIYPGDSDTRYSPSFQGQVTISADKSVTTTYLKWSSLKASDTATYYCVKGSETWGQGVLVTVSS
VL: QPVLTQPASLSASLGASASLTCTFSGGINVAGYNILWYQQKPGSPPRFLLRYKSDSDNVQGSGVPSHFSGSKDASTNTGILRISGLQSEDEADYYCAIGHSSGWVFGGGTRLTVL
B6: FVM13 (antibody, V domains shown)
VH: EVQLVQSGAEVKRPGESLKISCKTSGYTFTSSWISWVRQMPGKGLEWLGSIYPGDSDTRYNPSFQGHVTISADTSIITTHLQWSSLKASDTATYYCVKGSETWGQGVLVTVSS
VL: KPMLTQPTSLSASPGASASLTCTFSGGINVAGYNILWYQQKAGSPPRYLLRYKSDSTKDQGSGVPSRFSGSKDASANTGILRISGLQSEDEADYYCAIGHSSGWIFGGGTRLTVL
B7: FVM25 (antibody, V domains shown)
VH: EVQLVHSGAEVKRPGESLTISCKTSGYTFTDYWIAWVRQMPGKGLEWMASIYPDDSDTRYNPSFQGHVTISADKSISTTYLQWSSLRASDTATYYCVKGSETWGQGVLVTVSS
VL: QLVLTQPASLSASPGTSASLTCTFSGGINVAGYNILWYQQKPGSPPRFLLRYKSDSDNVQGSGVPSHFSGSKDASTNTGILRISGLQSEDEADYYCAIGHSSGWVFGGGTRLTVL
B8: FVM21 (antibody, V domains shown)
VH: EVQLVESGAEVKRPGESLTISCKTSGYSFTDSWVAWVRQMPGKGLEWLGSIYPGDSETKYNPSFQGHVTISADKSISTTYLQWSSLRASDTATYYCVKGADDWGPGLLVTVSS
VL: SSELTQPASLSASPGASASLTCTFSGGINVAGYNILWYQQKAGSPPRYLLRYKSDSDKGQGSGVPSRFSGSKDASANTGILRISGLQSEDEADYYCAIGHSSGWIFGGGTRLTVL
B9: FVM35 (antibody, V domains shown)
VH: EVQLVQSGAEVKRPGESLTISCKTSGYSFTSYWITWVRQMPGKGLEWLGSIYPGDSETKYNPSFQGHVTISADKSVTTTYLKWSSLKASDTATYYCVKGSETWGQGVLVTVSS
VL: QPVLTQPASLSASPGASASLTCTFSGGINVAGYNILWYQQKAGSPPRYLLRYKSDSTKDQGSGVPSRFSGSKDASANTGILRISGLQSEDEADYYCAIGHSSGWIFGGGTRLTVL
B10: FVM41 (antibody, V domains shown)
VH: EVQLVQSGAEVKRPGESLKISCKTSGYSFTDTWISWVRQMPGKGLEWMGSIYPGDSETKYNPSFQGHVTISADKSVTTTYLKWSSLKASDTATYYCVKGSETWGQGVLVTVSS
VL: ETVVTQPASLSASPGASASLTCTFSGGINVAGYNILWYQQKAGSPPRYLLRYKSDSTKDQGSGVPSRFSGSKDASANTGILRISGLQSEDEADYYCAIGHSSGVLFGGGTRLTVL
B11: FVM38 (antibody, V domains shown)
VH: QVQLVQSGAEVKRPGESLTISCKTSGYSFTDSWIGWVRQMPGKGLEWMASIYPDDSETKYNPSFQGHVTISADKSVTTTYLKWSSLKASDTATYYCVKGSETWGQGVLVTVSS
VL: QPVLTQPASLSASPGASASLTCTFSGGINVAGYNILWYQQKAGSPPRYLLRYKSDSTKDQGSGVPSRFSGSKDASANTGILRISGLQSEDEADYYCAIGHSSGWIFGGGTRLTVL
B12: FVM40 (antibody, V domains shown)
VH: EVQLVQSGAEVKRPGESLTISCKTSGYSFTDSWISWVRQMPGKGLEWMGSIYPGDSETKYNPSFQGHVTISADKSVTTTYLKWSSLKASDTATYYCVKGSETWGQGVLVTVSS
VL: QPMLTQPASLSASPGASASLTCTFSGGINVAGYNILWYQQKAGSPPRYLLRYKSDSTKDQGSGVPSRFSGSKDASANTGILRISGLQSEDEADYYCAIGHSSGWIFGGGTRLTVL
B13: FVM37 (antibody, V domains shown)
VH: QVQLVQSGAEVKRPGESLKISCKTSGYRFTSSWISWVRQMPGKGLEWLGSIYPGDSETKYNPSFQGHVTISADKSVTTTYLKWSSLKASDTATYYCVKGSETWGQGVLVTVSS
VL: SSELTQPASLSASPGASASLTCTFSGGINVAGYNILWYQQKAGSPPRYLLRYKSDSTKDQGSGVPSRFSGSKDASANTGILRISGLQSEDEADYYCAIGHSSGWIFGGGTRLTVL
B14: FVM28 (antibody, V domains shown)
VH: EVQLVQSGAEVKRPGESLKISCQTSGYRFTSSWISWVRQMPGKGLEWMGAIDPSDSETRYSPSFQGQVTISADKSISTAYLKWSSLKASDTATYYCVKGSETWGQGVLVTVSS
VL: QAALTQPASLSASPGASASLTCTFSGGINVAGYHILWYQQKPGSPPRYLLRYKSDSEKDQGSGVPSRFSGSKDASANRGILRISGLQSEDEADYYCAIGHSSSGWVFGGGTRLTVL
B15: FVM23 (antibody, V domains shown)
VH: QVQLVQSGAEVKRPGESLTISCKTSGYSFTGSWISWVRQMPGKGLEWMGSIYPGDSDTTYNPSFQGHVTISADKSISTAYLQWTSLKASDTATYYCVKGSETWGQGVLVTVSS
VL: SYELTQPASLSASPGASASLTCTFSGGINVAGYNILWYQQKAGSPPRYLLRYKSDSTKDQGSGVPSRFSGSKDASANTGILRISGLQSEDEADYYCAIGHSSGLIFGAGTRLTVL
B16: FVM24 (antibody, V domains shown)
VH: EVQLVQSGAEVKRPGESLKISCKTSGYSFTDSWVAWVRQMPGKGLEWMGSIYPGDFQTRYNPSFQGHVTLSADKSISTTYLQWSSLKASDTATYYCVKGSETWGPGVLVTVSS
VL: SSGLTQPASLSASPGASASLTCTFSGGINVAGYNILWYQQKAGSPPRYLLRYKSDSTKDQGSGVPSRFSGSKDVSANTGILRISGLQSDDEADYYCAIGHSSGWIFGGGTRLTVL
B17: FVM02P (antibody, V domains shown)
VH: EVQLVESGGGLVQPGGSLRLSCAASGFTGFTFSDYAFYWVRQAPGKGLEWVGFIRGKAYGGTADYAASVKGRFTISRDNSKNTAYLQMSSLKTEDSAVYYCTSQGVTVATPYHWGQGVLVTVSS
VL: DIVLTQSPLSLPVTPGEPASISCRSSQSLLHSGGKTYLYWYLQKPGQSPQLLIHEVSNRASGVPDRFSGSGSGTDFTLKISRVEAEDVGVYYCMQGIQLPLTFGGGTKVEIKR
B18: FVM03 (antibody, V domains shown)
VH: QVQLQESGPVLVKPSETLSLTCAVSGYSISSAYAWSWIRQPPGKGLEWVGYVGSSSDYNPSLKSRVTISRDTSKNRIFLNLRSLTAADTAVYYCARDRANNSMDVWGRGVLVTVSS
VL: EIVLTQSPDSLGVSLGERVTINCKSSQSLLYSSNNKNYLAWYQQKPGQAPKLLIYWASTRESGVPNRFSGSGSGTDFTLTISGLQAEDVAVYYCQQYYSTPLTFGQGTKVEIKR

How the values were obtained:
[1] = biological target: T1, SUDV GPddmuc (Sudan virus (SUDV), UniProt Q66814 33-650); experiment: ELISA
[2] = biological target: T2, EBOV GPddmuc (Ebola virus (EBOV), UniProt Q05320 33-650); experiment: ELISA
[3] = biological target: T3, MARV GPddmuc (Marburg virus (MARV), UniProt P35253 19-648); experiment: native ELISA
[4] = biological target: T3, MARV GPddmuc; experiment: ELISA
[5] = biological target: T1, SUDV GPddmuc; experiment: native ELISA
[6] = biological target: T2, EBOV GPddmuc; experiment: native ELISA

Binder	EC50 [1] [nM]	EC50 [2] [nM]	binding result [3]	EC50 [4] [nM]	binding result [5]	binding result [6]
B1	0.027	0.027	no binding	–	–	–
B2	0.127	0.073	no binding	–	–	–
B3	0.108	0.101	no binding	–	–	–
B4	0.267	0.12	no binding	–	–	–
B5	0.081	0.091	no binding	–	–	–
B6	0.051	0.062	no binding	–	–	–
B7	0.18	0.12	no binding	–	–	–
B8	0.067	0.067	no binding	–	–	–
B9	0.033	0.033	no binding	–	–	–
B10	0.053	0.047	no binding	–	–	–
B11	0.053	0.06	no binding	–	–	–
B12	0.033	0.04	no binding	–	–	–
B13	0.033	0.047	no binding	–	–	–
B14	0.047	0.047	no binding	–	–	–
B15	0.08	0.087	no binding	–	–	–
B16	0.12	0.153	no binding	–	–	–
B17	0.158	0.127	–	> 10	–	–
B18	–	–	–	0.306	no binding	no binding
